Results taken from patent US20250059275A1 (SHANGHAI NIGENE BIOLOGICAL SCIENCE AND TECHNOLOGY, published 2025).

Assays:
[1] = target: T1, human TIGIT expressed on CHO-K1 cells (CHO-huTIGIT) (human, UniProt Q495A1 22-244); experiment: flow cytometry blocking assay on CHO-huTIGIT-eGFP cells; blocked ligand: biotinylated human CD155-Fc
T1 construct: whole, on cells; also called CHO-huTIGIT-eGFP; human TIGIT-expressing CHO cells
T1 sequence (looked up): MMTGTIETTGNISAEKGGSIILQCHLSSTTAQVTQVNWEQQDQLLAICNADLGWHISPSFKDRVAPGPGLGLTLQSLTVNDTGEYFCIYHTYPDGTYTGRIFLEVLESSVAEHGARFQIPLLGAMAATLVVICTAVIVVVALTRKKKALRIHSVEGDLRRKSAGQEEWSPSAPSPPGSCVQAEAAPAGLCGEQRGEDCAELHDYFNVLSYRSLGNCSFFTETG
Protocol: (§1) CHO-huTIGIT-eGFP cells were implanted in V-bottom 96 well plates. The antibodies of Example 2 and reference antibodies were diluted to different concentrations respectively and added (100 μL/well) to the 96 well plate covered with cells (100%)), incubated at 4° C. for 1 hour.
(§2) Washed the cells by adding 200 μL/well washing buffer, and centrifuged at 1600 rpm (˜260×g), 4° C. for 3 minutes, and discarded the supernatant, repeated twice. […] (on ice) for 1 hour. Add 30 μL washing buffer contains streptavidin-594 (f.c.=10 μg/ml) into the well, then the cells were incubated at 4° C. for 30 minutes. Wash once and transfer the cells to a flat bottom 96 well plate, and analyze the cells with CytoFLEX S. Take the logarithm of antibody concentration (μg/mL) with the base of 10 as the abscissa and the intermediate fluorescence value corresponding to each antibody concentration as the ordinate.

[2] = target: T1, human TIGIT expressed on CHO-K1 cells …; experiment: flow cytometry competition on CHO-huTIGIT-eGFP cells; competitor biotinylated human CD155-Fc
Protocol: as §1, §2

[3] = target: T1, human TIGIT expressed on CHO-K1 cells …; experiment: flow cytometry on CHO-huTIGIT cells, anti-human IgG Fc Alexa Fluor 594
Protocol: (§3) CHO-huTIGIT cells or CHO-mkTIGIT cells were implanted in 96 well plates. The antibodies of Example 2 were diluted to different concentrations respectively and added to 96 well plates covered with cells (100 μL/well), incubated at 4° C. (on ice) for 1 hour.
(§4) Washed the cells by adding 200 μL/well washing buffer, and centrifuged at 1600 rpm (˜260×g), 4° C. for 3 minutes, and discarded the supernatant, repeated twice. Add 30 μL washing buffer containing anti-human IgG secondary antibody (Jackson ImmunoResearch, #109-585-190, Alexa Fluor® 594 AffiniPure Goat Anti-Human IgG, Fcγ fragment specific) to each well, cultured cells at 4° C. (on ice) for 1 hour. Washing twice, transferred the cells to a flat bottom 96 well plate, and analyze the cells with CytoFLEX S. The antibody concentration was plotted with the logarithm of 10 as the abscissa and the median fluorescence value of two channels as the ordinate. The EC₅₀ (CHO-huTIGIT and CHO-mkTIGIT) and the peak value of the curve were compared.

[4] = target: T2, cynomolgus monkey TIGIT expressed on CHO-K1 cells (CHO-mkTIGIT) (cynomolgus monkey, UniProt A0A7N9I9V4 89-312); experiment: flow cytometry on CHO-mkTIGIT cells, anti-human IgG Fc Alexa Fluor 594
T2 construct: whole, on cells
Protocol: as §3, §4

[5] = target: T2, cynomolgus monkey TIGIT expressed on …; experiment: flow cytometry on CHO-mkTIGIT cells, anti-human IgG secondary antibody
Protocol: as §3, §4

[6] = target: T3, human TIGIT-HIS (Biointron, BI120) (human, UniProt Q495A1 22-141, limits assumed); experiment: Octet BLI tandem epitope competition, TIGIT-HIS loaded on the sensor, first antibody step
T3 construct: also called recombinant huTIGIT protein; recombinant human TIGIT protein; not shown: His tag
T3 sequence (looked up): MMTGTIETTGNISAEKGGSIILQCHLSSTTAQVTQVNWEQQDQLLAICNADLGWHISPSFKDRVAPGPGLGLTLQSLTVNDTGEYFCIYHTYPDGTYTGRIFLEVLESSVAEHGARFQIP

T2 sequence (A0A7N9I9V4 entry or part of it): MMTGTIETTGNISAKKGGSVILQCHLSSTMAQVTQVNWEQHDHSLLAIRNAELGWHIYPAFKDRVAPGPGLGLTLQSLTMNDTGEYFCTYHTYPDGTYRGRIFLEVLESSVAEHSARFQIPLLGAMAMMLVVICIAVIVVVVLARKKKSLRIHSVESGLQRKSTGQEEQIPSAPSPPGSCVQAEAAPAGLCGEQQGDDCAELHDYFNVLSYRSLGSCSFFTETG

B1: JHH1B2-8C (antibody, V domains shown)
VH: QVQLQQSGPGLVKPSQTLSLTCAISGDSVSSNSAAWNWIRQSPSRGLEWLGRTYYRSKWYNDYAVSVKSRITINPDTSKNQFSLQLNSVTPEDTAVYYCAREGVLRYFDWLSGAFDIWGQGTMVTVSS
VL: not shown
**Q.** Which results are given for B1?
**A.** IC50 (read off the curve) [1]: ~1 µg/mL; IC50 [2]: 1.18 µg/mL; EC50 [3]: 5.49 ng/mL

B2: JHH4B030a (antibody, V domains shown)
VH: QVQLQQSGPGLVKPSQTLSLTCAISGDSVSSNSAAWNWIRQSPSRGLEWLGRTYYRSKWYNDYAVSVKSRITINPDTSKNQFSLQLNSVTPEDTAVYYCARERGTYYDILTGDFDYWGQGTLVTVSS
VL: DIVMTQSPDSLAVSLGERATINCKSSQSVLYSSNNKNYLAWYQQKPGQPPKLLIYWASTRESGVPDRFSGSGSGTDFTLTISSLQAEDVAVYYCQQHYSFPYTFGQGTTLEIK
**Q.** Which results are given for B2?
**A.** IC50 (read off the curve) [1]: ~0.8 µg/mL; IC50 [2]: 0.777 µg/mL; EC50 [3]: 4.3 ng/mL; EC50 [4]: 857 ng/mL

B3: JHH4A057 (antibody, V domains shown)
VH: QVQLVQSGSELKKPGASVKVSCKASGYTLTSHALNWVRQAPGQGLEWMGWINTNTGNPTYVQGFTGRFVFSLDTSVSTAYLQISSLKAEDTAVYYCARGYSSPPRMDVWGQGTTVTVSS
VL: EIVLTQSPGTLFLSPGERATLSCRASQSVSRNYLVWYQQKPGQAPRLLIYGASTRATGIPDRFSGSGSGTDFTLTIRRLEPEDFALYYCQQYGSSPFTFGQGTKLEIN
**Q.** Which results are given for B3?
**A.** IC50 (read off the curve) [1]: ~0.9 µg/mL; IC50 [2]: 0.899 µg/mL; EC50 [3]: 4.12 ng/mL; EC50 [4]: 8.87 ng/mL; EC50 (read off the curve) [5]: ~9 ng/mL

B4: JHH4B037a (antibody, V domains shown)
VH: EVQLVESGGGLVQPGRSLRLSCEASGFSFDDYAMHWVRQAPGKGLEWVSGISWNSVTIGYADSVKGRFTISRDNAKNSLYLEMNSLRTEDTALYYCAKELPTYRYYALDGWGQGTAVTVSS
VL: not shown
**Q.** What does the source list for B4?
**A.** IC50 (read off the curve) [1]: ~0.8 µg/mL; IC50 [2]: 0.79 µg/mL; EC50 [3]: 3.88 ng/mL; EC50 [4]: 5.32 ng/mL; EC50 (read off the curve) [5]: ~5 ng/mL

B5: JHH4A042-H3 (antibody, V domains shown)
VH: QVQLQQSGPGLVKPSQTLSLTCAISGDSVSSNSAAWNWIRQSPSRGLEWLGRTYFRSKWYNDYAVSVKSRITINPDTSKNQFSLQLNSMTPEDTAVYYCARERALYDILAGSFDYWGQGTLVTVSS
VL: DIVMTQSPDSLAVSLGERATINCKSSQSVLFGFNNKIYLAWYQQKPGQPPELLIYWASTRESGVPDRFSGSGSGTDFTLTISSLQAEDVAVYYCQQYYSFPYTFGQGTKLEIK
**Q.** With B5 as the binder, how does the “IC50 (read off the curve)” value [1] read?
**A.** ~0.8 µg/mL

**Q.** And the IC50 [2]?
**A.** 0.8 µg/mL

**Q.** What about the EC50 [3] of the same binder?
**A.** 4.63 ng/mL

**Q.** What about the EC50 [4] of the same binder?
**A.** 79.2 ng/mL

**Q.** And the “EC50 (read off the curve)” value [5]?
**A.** ~1000 ng/mL

B6: JHH4A042-H7 (antibody, V domains shown)
VH: QVQLQQSGPGLVKPSQTLSLTCAISGDSVSSNSAVWNWIRQSPSRGLEWLGRTYYRSKWYNDYAVSVKSRITINPDTSKNQFSLQLNSMTPEDTAVYYCARERALYDILAGSFDYWGQGTLVTVSS
VL: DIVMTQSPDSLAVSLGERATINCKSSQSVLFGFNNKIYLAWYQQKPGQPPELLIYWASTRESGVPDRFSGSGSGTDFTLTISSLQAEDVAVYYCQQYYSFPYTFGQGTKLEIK
**Q.** With B6 as the binder, how does the “IC50 (read off the curve)” value [1] read?
**A.** ~1 µg/mL

**Q.** And the IC50 [2]?
**A.** 0.973 µg/mL

**Q.** What about the EC50 [3] of the same binder?
**A.** 6.03 ng/mL

**Q.** And the EC50 [4]?
**A.** 605 ng/mL

B7: JHH4D035a (antibody, V domains shown)
VH: EVQLVESGGGLVQPGRSLRLSCAASGFTFDDFAMHWVRQAPGKGLEWVSGISWNGIGIGYADSVKGRFTISRDNAKNSLYLQMNSLRAEDTALYFCAKDKGLRRYYGMDVWGQGITVIVSS
VL: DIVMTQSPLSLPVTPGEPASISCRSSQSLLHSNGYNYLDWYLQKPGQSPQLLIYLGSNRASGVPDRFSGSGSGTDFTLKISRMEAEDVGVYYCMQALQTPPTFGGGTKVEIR
notes: Fully human antibody from TC-mAb mice
**Q.** Does B7 bind [6]?
**A.** binds

B8: JHH4E061a (antibody, V domains shown)
VH: EVQLVESGGGLIQPGRSLTLSCVASGFTFDDYAMHWVRQAPGKGLEWVSGISWNGIGIGYADSVKGRFTISRDNAKNSLILQMNSLRIEDTALYYCAKDKGLRRYYGMDVWGQGTTVTVSS
VL: EIVMTQSPLSLPVTPGEPASISCRSSRSLLHSNGYNYLDWYLQKPGQSPQLLIYLGSNRASGVPDRFSGSGSGTDFTLKINRVEAEDVGVYYCMQALQTPPTFGGGTKVEIK
notes: as for B7
**Q.** Does B8 bind [6]?
**A.** binds

B9: JHH4B056a (antibody, V domains shown)
VH: EVQLVESGGGLVQPGRSLRLSCAASGFTFDDYAMHWVRQAPGKGLEWVSGISWNGIGIGYADSVKGRFTISRDNAKNSLYLQMNSLRAEDTALYYCAKDGGDYHYYGMDVWGQGTTVTVSS
VL: not shown
**Q.** What does the source list for B9?
**A.** IC50 (read off the curve) [1]: ~1 µg/mL; IC50 [2]: 1 µg/mL; EC50 [3]: 4.59 ng/mL; EC50 [4]: 9.58 ng/mL; EC50 (read off the curve) [5]: ~9 ng/mL

B10: JHH4A063 (antibody, V domains shown)
VH: EVQLVESGGGLVQPGRSLRLSCTASGFNFDDYGMHWVRQAPGKGLEWVSGISWNSISIGSADSVKGRFTISRDNAKNSLYLQMNSLRPEDTALYYCAKDGGDHYYYGMDVWGQGTTVTVSS
VL: DIMMTQSPLSLPVTPGEPASISCRSSQSLLHSNGYKYLNWYLQKPGQSPLLLIYLGSNRASGVPDRFSGSGSGTDFTLKISRVEAEDVGVYYCMQALQTPLTFGGGTKVEIK
notes: also called 4A063-hIgG1
**Q.** How did the “IC50 (read off the curve)” value [1] turn out when B10 was run?
**A.** ~0.5 µg/mL

**Q.** And the IC50 [2]?
**A.** 0.559 µg/mL

**Q.** And the EC50 [3]?
**A.** 3.49 ng/mL

**Q.** And the EC50 [4]?
**A.** 4.25 ng/mL

**Q.** What about the “EC50 (read off the curve)” value [5] of the same binder?
**A.** ~4 ng/mL
